Here are results for one substance from patent publication EP4611795A1.

Experiment [1] concerns the target human IgM (purified human IgM, MilliporeSigma; IgM in human sera) (human). Briefly: cell-based or functional assay.
Experiment [2] has as its target human IgG (purified human IgG; IgG in human sera) (human). Briefly: cell-based or functional assay.

Sequence of human IgM (purified human IgM, MilliporeSigma; IgM in human sera) (human) (heavy, as listed by the source): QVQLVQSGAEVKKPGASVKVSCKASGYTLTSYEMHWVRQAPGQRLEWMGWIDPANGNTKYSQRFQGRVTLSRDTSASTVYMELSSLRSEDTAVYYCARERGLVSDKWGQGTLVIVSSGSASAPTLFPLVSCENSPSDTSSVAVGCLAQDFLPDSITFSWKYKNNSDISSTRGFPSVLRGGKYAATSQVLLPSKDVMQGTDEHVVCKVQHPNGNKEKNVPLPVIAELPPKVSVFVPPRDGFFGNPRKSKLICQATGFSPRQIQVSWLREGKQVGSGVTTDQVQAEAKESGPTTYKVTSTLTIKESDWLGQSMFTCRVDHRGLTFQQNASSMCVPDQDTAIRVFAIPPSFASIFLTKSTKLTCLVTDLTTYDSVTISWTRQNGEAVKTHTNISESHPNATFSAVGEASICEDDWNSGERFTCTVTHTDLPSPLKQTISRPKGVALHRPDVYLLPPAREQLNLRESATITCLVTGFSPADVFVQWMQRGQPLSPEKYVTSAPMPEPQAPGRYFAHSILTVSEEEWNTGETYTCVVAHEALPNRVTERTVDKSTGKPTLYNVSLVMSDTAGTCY

In experiment [1], “IceMG (recombinant His-tagged fusion protein of IceM and IdeZ proteolytic domains with the rigid linker) (enzyme)” had an EC50 of IceMG enzymatic activity on IgM in human sera of 0.07 nM. The substance further gave an EC50 of IceMG enzymatic activity on IgG in human sera in experiment [2] of 4.7 nM.
